This is an account of results in publication PMC3006384, “Phosphorylation of Mouse Immunity-Related GTPase (IRG) Resistance Proteins Is an Evasion Strategy for Virulent Toxoplasma gondii” (PLoS Biology, 2010).

B1: recombinant wt Irga6 (bacterially expressed, from pGEX-4T-2-Irga6) [mouse] / itself (parent)
chain: MGQLFSSPKSDENNDLPSSFTGYFKKFNTGRKIISQEILNLIELRMRKGNIQLTNSAISDALKEIDSSVLNVAVTGETGSGKSSFINTLRGIGNEEEGAAKTGVVEVTMERHPYKHPNIPNVVFWDLPGIGSTNFPPNTYLEKMKFYEYDFFIIISATRFKKNDIDIAKAISMMKKEFYFVRTKVDSDITNEADGKPQTFDKEKVLQDIRLNCVNTFRENGIAEPPIFLLSNKNVCHYDFPVLMDKLISDLPIYKRHNFMVSLPNITDSVIEKKRQFLKQRIWLEGFAADLVNIIPSLTFLLDSDLETLKKSMKFYRTVFGVDETSLQRLARDWEIEVDQVEAMIKSPAVFKPTDEETIQERLSRYIQEFCLANGYLLPKNSFLKEIFYLKYYFLDMVTEDAKTLLKEICLRN

Variants of B1 are the subject of the assay. The assay can be described thus: light scattering (GTP-dependent oligomerisation). The conditions noted are these: with itself, value read at the last time point, 60 min, parent: 0.61, read off a plot.
In the case of chain 1 T108D, the response worked out at 0.22 a.u.
